Laboratory results as given in the nanobody polyreactivity screen of Harvey et al. (2022).

Test: yeast display, Sf9 membrane polyspecificity reagent, FACS + sequencing; frameworks hold sequencing errors
How it was run: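 Polyreactivity labels are assigned by the sorting gate from which each nanobody was recovered. The gates were low and high (top ~1%), set on anti-HA fluorescence for expression and streptavidin fluorescence for reagent binding. Before sorting, galactose-induced (36–48 hours) yeast display cells were stained for 1 hour at 4 °C with 10% biotinylated, detergent-solubilized Sf9 membrane reagent.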

Sequence | polyreactivity (PSR sort gate)
QVQHVESGGGLVQAGGSLRLSCAASGFTFGYYAMGWYRQAPGKESELVAAIRSSGGSTYYADSVKGRFTISRDYAKNTDYLQMNSLKPEDSAVYYCAVLYGYLSSSRYGYDSWGKGTQVTVSS | high polyreactivity
HVKLVDSGGGLVKAGGSLRLTCAASGITIYTNDMGWSRQARGKERELVAAITTNDGDTYYADSVKGRFTISRDNEKNTVYLQMNSLKPEDNAVYYCAADSGSTSEYEYWGQGTQVTVSS | low polyreactivity
QVQLVESGGGLVQAGGSLRLSCAASGFTFQYYTKGWYRQAPGKERELVAAISARGGSTYYADSVKGRFTISRDNAKNTVYLQMNSLKPEDTAVYYCNTVGIGAWGYSYPDEDNYWGQGTQVTVSS | low polyreactivity
QVQLVESGGGLVQAGGSLRLSCAASGRILPRNSMGWSRQAPGKERELVAGISSDGSTKYADSVKGRFTISRDNAKNTVYLQMNSLKPEETAVYYCAADVVYDPNLYGYWGQGTQVTVSS | low polyreactivity
QVQLVESGGGLFQAGGSLRLSCAASGRTLLGNAMVWYRQAPGKEREFVAAISYRGGSTYYADSVKGRFTISRDYAKNTVYLQMKSLKPEDTAVYYCAASSFKYSRFDYWGQGTQVTVSS | low polyreactivity
QVQLVESGGGLVQAGGSLRLSCAASGLTFRVNDMGWYRQAPGKERELVATISSGGSTYYADSVKGRFTISRDNAKNTVYLQMNSLKPEDTAVYYCATNSEGQESNSYYVWMGYWGQGTQVTVSS | low polyreactivity
QVQLVESGGGLVQAGGSLRLSCAASGGTIYFYDMGWYRQAPGKEREFVAAIDGSAGRTYYADSVKGRFTISRDNAKNTVYLQMNSLKPEDTAVYYCAADWAQQSEQEYGTTYDYWGQGTQVTVSS | low polyreactivity
QVQLVESGGGLVQAGGSLRLSCAASGRIFQPNVMGWYRQAPGIERELVAAIRSGSSTYYADSVKGRFTISRDNAKNTVYLQMNSLKPEDTAVDYCATRYRKQYKPYEYWGQGTQVTVSA | high polyreactivity
QVQLVESGGGLVQAGGSLRLSCAASGSTFGVNAMGWYRQAPGKERELVAAISWSGGSTYYADSVKGRFTISRDNAKNTVYLQMNSLKPEDTAVYYCAADFDYGIWGRYEYWGQGTQVTVSS | high polyreactivity
QVQLVESGGGLVQAGGSLRLSCAASGFTFVYYVMGWYRQAPGKERELVAAINAGGGSTYYADSVKGRFTISRDNAKNTVYLQMNSLKPEDTAVYYCNARVRVRLGRKWSSYYYWGQGTQVTVSS | high polyreactivity
QVQLVESGGGLVQAGGSLRLSCAASGFTINFYSLGWYRQAPGKERELVAAITASGGGSTYYADSVKGRFTISRDNAKNTVYLQMNSLKQEDTAVYYCNADFTGSFYTYEYWGQGTQVTVAS | low polyreactivity
QVQLVESGGGLVQAGGSLRLSCAASGSIFPAIAKGWYRQAPGTERELVAAISVSGARTYYADSVKGRFTISRDNAKNTVYLQMNSLKPEDTAVYYCAARAAGSQHDYWGQGTQVTVSS | high polyreactivity
QVQLVESGGGLVQAGGSLRLSCAASGFIFSVYAMGWYRQAPGKERELVAAITGNGVSTYYADSVKGRFTISRDNAKNTVYLQMISLKPEDTAVYSCATYGRRWYSSRRLDYWGQGTQVTVSS | low polyreactivity
QVQLVESGGGLVQEGGSLRLSCAASGRTFYINGLGWYRQAPGKEREFVASITWRGGRTYYADSVKGRFTISRDNAKNTVYLQMNSLKPEDTAVYYCNAVGLGGRATSRWYTHYYWGQGTQVTVSS | high polyreactivity
QVQLVESGGGLVQAGGSLRLSCAASGIIFGFYAMGWYRQAPGKERELVAAITNDGGITNYADSVKGRFTISRDNAMNTVYLQMNSLKPEDTAVYYCAKDQWPWVRDSLYTLRYDYWGQGTQVTVSS | low polyreactivity
QVQLVESGGGLVQAGGSHRLSCAASGRIFTSNTMGWYRQAPGKERELVAAITSSGGSMYYADSVKGRFTISRDNAKNTVYLQMNSLIPEDTAVYYCAADTIGYHYWYDYWGQGTQVTVSS | low polyreactivity
QVQLVESGGGLVQAGGSLRLSCAASGSIFAKYAMGWYRQAPGKERELVAVITSRGGTYYADSVKGRFTISRDNAKKTVYLQMNSLKPEDTAVYYCAARGGGQPVAYDYWGQGTQVTVSS | high polyreactivity
QVQLVESGGGLVQAGGSLRLSCAASGRIFNYYDMGWYRQPPGKERELVAAISWRGTSTRYADSVKGRFTISRDNAKNTVYLQMNSLKPEDTAVYYCADDDYARRFSFKYDYWGQGTQVTVSS | high polyreactivity
QVQRVESGGGLVQAGGSLRLSCAACGLTFRQYAMVWYRQAPGKERELVAAIRSRGGSTYYADSVKGRFTISRDNAKNTVYFQMNSLKPEDTAVYYCAAGGRGWWLYRYNFFSEMDYWGQGTQVTVSS | high polyreactivity
QVQLVESGGGLVQAGGSLRLSCAASGRTLQTYVMGWYRQPPGKERELVAAITRGGGSTYYADSVKGRFTISRDNAKNTVYLQMNSLKPEDTAVYYCAASALRFNSRFSHWYNYWGQGTQVTVSS | high polyreactivity
QVQLVESGGCIVQAGGSLRLSCADSGSIFDWYAMVWYRQAPGKERELVAAINEGGGSTYYADSVKGRFTISRDNANNTVYLQMNSLKPEDHAVYYCAAGDYYLQDNYWGQGTQVTVSS | low polyreactivity
QVQLVESGGGLVQAGGSLRLSCAASGLIYWYAMGWYRQAPGKERELVAAISSNGGSTYYADSVKGRFTISRDNAKNTVYLQMNSLKPEDTAVYYCAAEDYYIYREPYDYWGQGTQVTVSS | low polyreactivity

Sequence | polyreactivity (PSR sort gate)
QLQLAESGGGLVQAGGSLRLSCAASGSTFEINAMGWYRQAPWKERELVAAISKRGGNTYYADSVKGRFTISRDNAKNTVYLQMNSLKPEVTAVYYCSADSDSHYFFYVRWVGERYEYWGQGTQVTVSS | high polyreactivity
QVQLVESGGGLVQAGGSLRLSCAASGSIFVTYGMGWYRQAPGKERELVARITTSGGSTYYADSVKGRFTISRDNAKNTVYLQMNSLKQEDTAVYYCNVRFAWGWTYWRYDYWGQGTQVTVSS | high polyreactivity
QVQLVESGGGLDQARGSLRLSCAASGFTFNYYAMGWYRQAPGKERELVAAISSSGGSTYYADSVKGRFTISRDNAKNTVYLQMNSLKPDDTAVYYCAAPVLPGYNYWGQGTQVTVSS | high polyreactivity
QVQLVESGGGLVQAGGSLRLSCAASGFILPIYAMGWYRQAPGKEREFVAAITWTGGSTYYADSVKGRFTISRDNANNTVYLQMNSLKPEDTAVYYCNAEGRSYYYIIYDFWGQGTQVTVSS | high polyreactivity
QVQLVESGGGLVQAGGSLRLSCAASGRIFLTNAMGWYRQAPGKERELVADITSGGATYYADSVKGRFTISRDNAKNSVYLQMNSLKPVDTAVYYCNADTDRYWPYEYDYWGQGSQVTVSS | low polyreactivity
QVQLVESGGGLVQAGGSLRLSCAASGLTFTVNAMGWYRQAPGKERELVARIRNSGGRTYYADSVKGRFTISRDNAKNTVYLQMNSLKPEDTAVYYCAARRYYYQVGYDYWGQGTQVTVSS | high polyreactivity
QVQLVESGGGLVQAGGSLRLSCAASGRIIRSNVMGWYRQAPGKERDLVAGISRSGGSTYYADSVKGRFTISRDNAKNTVYLKMNSLKPEDTAVYYCNAGWWYLGSPFDRDYWGQGTQVTVSS | high polyreactivity
QVQLVESGGGLVQAGGSLRLSCAASGYTFRGYAMGWSRQAPGKERELVAAISWSGGRTYYADSVKGRFTISRDNAKYTVYLQMNSLKPEDTAVYYCAAPGQHSWGQGTQVTVSS | high polyreactivity
QVQLVESGGGLVQAGGSLRFSCAASGGFFHGNTMGWYRQAPGKERELVAAISNSGGSTYYADSVKGRFPISRDNAKNTVYLQMNSLKPEDTAVDSCARVGYKLYQYKYDYWGQGTQVTVSS | low polyreactivity
QVQLVESGGGLVPAGGSLRLSCAASGRIFWSNAMGWYRQAPGKERELVAAITWRGGSTYADSVKGRFTISRDNAKNTVYLQMNSLKPEDTAVFYCAASPSGWRYDYWGQGTQVTVSS | high polyreactivity
QVQLVESGGGLVKAGGSLRLSCAASGFICVDYDRGGSRQAPGQERELVAAINWSGGSTDYADSVKGRFTISRDNAKNTVYLQMNSLKPEDTAVYYCGAEGQDCRFYWGLGTQVTVSS | low polyreactivity
QVQLVESGGGLVQAGGSLRLSCAASGGTFGYNAMGWYRQAPWKERELVAAISSGGRTYYADSVKGRFTISRDNAKNTVYLQMNSLKPEDTAVYYCNARKGLYYGGRYDYWGQGTQVTVSS | high polyreactivity
QVQLVESGGGLVQAGGSLRLSCAASGITIRYYTMGWYRQAPGKERELVASISWSGTSTHYADSVKGRFTISRDNAKNTVYLQMNSLKPEDTAVYYCAATITSLAGGYRNGYTSYYWGQGTQVTVSS | high polyreactivity
QVQLVESGGGLVQAGGSLRLSCAASGIIFAYYAMGWYRQAPGKERELVGTNYADSVKGRFTISRDNAKNTVYLQMNSLKPEDTAVYYCNTEWTSLSKSSLGGRYDHWGQGTQVTVSS | low polyreactivity
HVRLQESGGGLVQAGGSLRQSCAACGAISPYYDMGWYRLAPGKEREFVASIAHGGTTYYADSVKGRFTTSRDNAKNTVYLQMKSMKTEDTAVYYCAVDYDVWHSHIYRGQGTQVTVSS | high polyreactivity
QVQLVESGGGLVQAGGSLRLSCAASGRTFDYYAMGWYRQAPGKERELVARISWNGGSTRYADSVKGRFTISRDNAKNTVYLQMNSLKPEDTAVYYCAARYILLARKYDYWGQGTQVTVSS | high polyreactivity
QVQLVESGGGLVQAGGSLRLSCAASGSTFTHYAMGWYRQAPGKERELVAAISWGGGTTRYADSVKGRFTISRDNAKNTVYLQMNSLKPEDTAVYYCAKRVRTGSVGNFNYWGQGTQVTVSS | high polyreactivity
QVQLVESGGGLVQAGGSLRLSFAASGRTFEPYPLGWYRQAPGKERELVAAIDVGDGTTYYAYSVKGRFTISRDNAKYTVYLELNSLKPEDTAVYYCAADVIGFVGSEDYWGQGTQVTVSS | low polyreactivity
QVQLVESGGGLVQAGGSLRLSCATSGSTSYPYAMGWYRQAPGKERELVAAISTSGSTTYYADSVKVRFTLSRDNAKKTVYLQMNSLKPEDTAVYYCAKGVNFSQYPFSAYGDGGRYDYWGQGTQVTVSS | low polyreactivity
QDQLVDSGGRLVQGGGSLRLSCAASGYIFIWYDMGWYRQAPGKERELVAAISGSGGYTYYADSVKGRFTISRDNAKNTVFLQMNSLKPEDTAVYYCAAYVARGNSEVIAMDYWGQGTQVTVSS | low polyreactivity
QVQLVESGGGLVQAGGSLRLSCAASGLTFHYYAMGWYRQAPGKERELVAVISSGGSTYYADSVKGRFTISRDNAKNTVYLQMNSLKPEDTAVYYCAKLSLSWDGYYQYDYRGQGTQVTVSS | low polyreactivity
